The data set deals with the molecule itself. The data set is described as follows: cryo-EM structure.

B1: truncated β3-SBP (GABAA receptor β3 subunit, M3-M4 loop replaced by SQPARAA), from Expi293F cells (receptor)
chain: QSVNDPGNMSFVKETVDKLLKGYDIRLRPDFGGPPVCVGMNIDIASIDMVSEVNMDYTLTMYFQQYWRDKRLAYSGIPLNLTLDNRVADQLWVPDTYFLNDKKSFVHGVTVKNRMIRLHPDGTVLYGLRITTTAACMMDLRRYPLDEQNCTLEIESYGYTTDDIEFYWRGGDKAVTGVERIELPQFSIVEHRLVSRNVVFATGAYPRLSLSFRLKRNIGYFILQTYMPSILITILSWVSFWINYDASAARVALGITTVLTMTTINTHLRETLPKIPYVKAIDMYLMGCFVFVFLALLEYAFVNYIFFSQPARAAAIDRWSRIVFPFTFSLFNLVYWLYYVN
A word on the stoichiometry N: it is a count of units in the complex or per binding partner. Regarding B1, the “stoichiometry N” value stood at 5.
